In patent EP4289863A9 (Shanghai Huaota Biopharmaceutical Co., Ltd., dated 2024):
Positions count from the first letter of the chain named. In names and notes the source's numbering stands. Values belong to the binder of their own block, whether it stands above or below them.

Assays:
human IL-36R [1] = target: T1, human IL-36R (human, UniProt Q9HB29 20-575); assay: cell-based or functional assay
T1 sequence (looked up): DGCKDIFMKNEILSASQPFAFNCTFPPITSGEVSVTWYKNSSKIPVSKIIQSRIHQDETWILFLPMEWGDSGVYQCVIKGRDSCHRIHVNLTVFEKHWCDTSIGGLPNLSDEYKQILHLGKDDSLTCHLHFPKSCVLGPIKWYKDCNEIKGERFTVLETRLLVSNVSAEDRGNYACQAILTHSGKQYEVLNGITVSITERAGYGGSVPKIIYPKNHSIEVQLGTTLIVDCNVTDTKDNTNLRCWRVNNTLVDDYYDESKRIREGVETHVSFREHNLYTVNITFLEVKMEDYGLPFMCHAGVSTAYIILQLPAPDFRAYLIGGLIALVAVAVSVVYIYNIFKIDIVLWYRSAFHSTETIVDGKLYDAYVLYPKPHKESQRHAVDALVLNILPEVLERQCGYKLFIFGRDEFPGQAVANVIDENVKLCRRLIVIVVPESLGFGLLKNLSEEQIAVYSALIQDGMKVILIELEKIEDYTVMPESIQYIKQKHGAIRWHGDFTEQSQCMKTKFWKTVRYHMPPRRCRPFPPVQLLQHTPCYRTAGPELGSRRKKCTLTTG

human IL-36R [2] = target: T1, human IL-36R; assay: cell-based or functional assay; remark: listed apart in the source
human IL-36R [3] = target: T1, human IL-36R; assay: cell-based or functional assay; remark: listed apart in the source
human IL-36R [4] = target: T1, human IL-36R; assay: cell-based or functional assay; remark: listed apart in the source
[5] = target: T2, His-tagged human IL-1 Rrp2/IL-1R6 protein (human, UniProt Q9HB29 20-335, limits assumed); assay: SPR Biacore 8K, His-tagged antigen captured by anti-His antibody, antibody as analyte, 1:1 model
T2 construct: Bought protein; also called His-tagged human IL-1 Rrp2/IL-IR6 protein; not shown: His tag
T2 sequence (looked up): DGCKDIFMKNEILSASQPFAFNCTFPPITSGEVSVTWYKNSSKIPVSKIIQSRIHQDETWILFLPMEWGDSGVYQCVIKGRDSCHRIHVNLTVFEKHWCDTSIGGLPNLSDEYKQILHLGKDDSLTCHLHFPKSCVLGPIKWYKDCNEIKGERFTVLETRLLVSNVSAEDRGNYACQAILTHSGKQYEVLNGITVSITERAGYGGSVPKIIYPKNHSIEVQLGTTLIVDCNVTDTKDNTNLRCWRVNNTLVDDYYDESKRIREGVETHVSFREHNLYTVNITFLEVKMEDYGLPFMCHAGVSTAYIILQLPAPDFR

IC50 of GM-CSF release, NCI/ADR-RES cells stimulated with IL-36α (human IL-36R [1]): 0.0328 µg/mL | IC50 of GM-CSF release, NCI/ADR-RES cells stimulated with IL-36β (human IL-36R [1]): 0.0224 µg/mL | IC50 of GM-CSF release, NCI/ADR-RES cells stimulated with IL-36γ (human IL-36R [1]): 0.0288 µg/mL | IC50 of IL-6 release, NCI/ADR-RES cells stimulated with IL-36α (human IL-36R [1]): 0.0332 µg/mL | IC50 of IL-6 release, NCI/ADR-RES cells stimulated with IL-36β (human IL-36R [1]): 0.0204 µg/mL | IC50 of IL-6 release, NCI/ADR-RES cells stimulated with IL-36γ (human IL-36R [1]): 0.0198 µg/mL | IC50 of IL-8 release, NCI/ADR-RES cells stimulated with IL-36α (human IL-36R [1]): 0.0439 µg/mL | IC50 of IL-8 release, NCI/ADR-RES cells stimulated with IL-36β (human IL-36R [1]): 0.0292 µg/mL | IC50 of IL-8 release, NCI/ADR-RES cells stimulated with IL-36γ (human IL-36R [1]): 0.0284 µg/mL | IC50 of pNF-κB, NCI/ADR-RES cells stimulated with IL-36β (human IL-36R [1]): 115 ng/mL | HuIL-6 detected in HIF under IL-36α stimulation IC50 (human IL-36R [2]): 0.146 µg/mL | HuIL-6 detected in HIF under IL-36β stimulation IC50 (human IL-36R [3]): 0.0837 µg/mL | pNFκB detected in HIF under IL-36β stimulation IC50 (human IL-36R [4]): 0.1 µg/mL | Kd [5]: 0.0254 nM | koff [5]: 1.68e-05 s⁻¹ | kon [5]: 660000 M⁻¹ s⁻¹
B1: anti-IL-36R chimeric antibody 900497 (antibody, V domains shown)
VH: QVQLQQTGSVLVRPGTSVKLSCKASGYTFTSSWMHWAKQRPGQGLEWIGEIHPNSAKTNYNEKFKGKATLTVDTFSSTAYVDLSSLASEDSAVYYCARVDYGKPWFAYWGQGTLVTVSA
VL: QIVLTQSPTIMSASPGERVTMTCSASSSVSSSYLHWYQQKPGSSPKLWIYSTSNLASGVPARFSGSGSGTSYSLTINSMEAEDAATYYCQQFQSSPLTFGAGTKLGLK
notes: Human-mouse chimera: human IgG1 heavy constant region with L234A and L235A (Eu numbering), human kappa light constant region

IC50 of GM-CSF release, NCI/ADR-RES cells stimulated with IL-36α (human IL-36R [1]): 0.0206 µg/mL | IC50 of GM-CSF release, NCI/ADR-RES cells stimulated with IL-36β (human IL-36R [1]): 0.0184 µg/mL | IC50 of GM-CSF release, NCI/ADR-RES cells stimulated with IL-36γ (human IL-36R [1]): 0.0179 µg/mL | IC50 of IL-6 release, NCI/ADR-RES cells stimulated with IL-36α (human IL-36R [1]): 0.0124 µg/mL | IC50 of IL-6 release, NCI/ADR-RES cells stimulated with IL-36β (human IL-36R [1]): 0.0223 µg/mL | IC50 of IL-6 release, NCI/ADR-RES cells stimulated with IL-36γ (human IL-36R [1]): 0.0121 µg/mL | IC50 of IL-8 release, NCI/ADR-RES cells stimulated with IL-36α (human IL-36R [1]): 0.0398 µg/mL | IC50 of IL-8 release, NCI/ADR-RES cells stimulated with IL-36β (human IL-36R [1]): 0.0221 µg/mL | IC50 of IL-8 release, NCI/ADR-RES cells stimulated with IL-36γ (human IL-36R [1]): 0.018 µg/mL | IC50 of pNF-κB, NCI/ADR-RES cells stimulated with IL-36β (human IL-36R [1]): 105 ng/mL | Kd [5]: 0.0148 nM | koff [5]: 1.34e-05 s⁻¹ | kon [5]: 904000 M⁻¹ s⁻¹
B2: humanized anti-IL-36R antibody 900513 (antibody, V domains shown)
VH: QVQLVQSGAEVKKPGASVKVSCKASGYTFTSSWMHWAKQAPGQGLEWIGEIHPNSAKTNYNQKFQGRVTMTRDTSISTAYMELSRLRSDDTAVYYCARVDYGKPWFAYWGQGTLVTVSS
VL: EIVLTQSPGTLSLSPGERATLSCSASSSVSSSYLHWYQQKPGQAPRLWIYSTSNRATGIPDRFSGSGSGTDFTLTISRLEPEDFATYYCQQFQSSPLTFGQGTKLEIK
notes: IgG1 (vector with L234A, L235A) and human kappa

IC50 of GM-CSF release, NCI/ADR-RES cells stimulated with IL-36α (human IL-36R [1]): 0.0202 µg/mL | IC50 of GM-CSF release, NCI/ADR-RES cells stimulated with IL-36β (human IL-36R [1]): 0.0186 µg/mL | IC50 of GM-CSF release, NCI/ADR-RES cells stimulated with IL-36γ (human IL-36R [1]): 0.021 µg/mL | IC50 of IL-6 release, NCI/ADR-RES cells stimulated with IL-36α (human IL-36R [1]): 0.0216 µg/mL | IC50 of IL-6 release, NCI/ADR-RES cells stimulated with IL-36β (human IL-36R [1]): 0.0168 µg/mL | IC50 of IL-6 release, NCI/ADR-RES cells stimulated with IL-36γ (human IL-36R [1]): 0.0176 µg/mL | IC50 of IL-8 release, NCI/ADR-RES cells stimulated with IL-36α (human IL-36R [1]): 0.0304 µg/mL | IC50 of IL-8 release, NCI/ADR-RES cells stimulated with IL-36β (human IL-36R [1]): 0.022 µg/mL | IC50 of IL-8 release, NCI/ADR-RES cells stimulated with IL-36γ (human IL-36R [1]): 0.018 µg/mL | IC50 of pNF-κB, NCI/ADR-RES cells stimulated with IL-36β (human IL-36R [1]): 64.9 ng/mL | Kd [5]: 0.0579 nM | koff [5]: 5.1e-05 s⁻¹ | kon [5]: 881000 M⁻¹ s⁻¹
B3: humanized anti-IL-36R antibody 900534 (antibody, V domains shown)
VH: B2 VH
VL: B2 VL with E1Q, S24R, W48L, N54S
notes: as for B2
